Assay results from US20230094162A1 (MacroGenics, published 2023).
Read-outs that look alike come from different tables or passages of the source.

Columns and labels:
[1] = target: T1, CD137 expressed on the cell surface (CHO/CD137 cells) (UniProt Q07011 24-255, limits assumed); test: flow cytometry (FACS) on CHO cells expressing CD137, MFI
T1 construct: whole, on cells; also called cell surface CD137; Jurkat-NF-κB-Luc reporter cells overexpressing CD137

[2] = target: T2, PD-L1 expressed on the cell surface (CHO/PD-L1 cells) (UniProt Q9NZQ7 19-290); test: cell-based or functional assay
[3] = target: T2, PD-L1 expressed on the cell surface …; test: flow cytometry (FACS) on JIMT-1 cells (PD-L1 positive), MFI
[4] = target: T2, PD-L1 expressed on the cell surface …; test: cell-based or functional assay; remark: listed apart in the source
[5] = target: T1, CD137 expressed on the cell surface …; test: flow cytometry (FACS) on CHO cells expressing CD137, MFI; remark: listed apart in the source
Method: FACS analysis to evaluate the test articles for binding to cell surface CD137 was performed essentially as follows: 100 μL of CHO cells expressing CD137 (CHO/CD137) (1.0×10⁵ to 1×10⁶ cells/well) and 100 μL of serially diluted test article or control was added to each well of microtiter assay plate(s), mixed and incubated at RT for about 30 min. The cells were washed with FACS Buffer and secondary antibody (goat anti-human-APC, PE, or FITC) was then added to each well (1:1000), after which, the components were mixed and the wells were incubated at RT for about 30 min. Cells were washed and resuspended in 250 μL FACS Buffer and analyzed by flow cytometry (BD LSR Fortessa or FACSCanto II) for cell events collection. Data analysis were performed via FloJo v10.

[6] = target: T1, CD137 expressed on the cell surface …; test: as above; remark: listed apart in the source
[7] = target: T2, PD-L1 expressed on the cell surface …; test: cell-based or functional assay; remark: listed apart in the source

T2 sequence (Q9NZQ7 19-290): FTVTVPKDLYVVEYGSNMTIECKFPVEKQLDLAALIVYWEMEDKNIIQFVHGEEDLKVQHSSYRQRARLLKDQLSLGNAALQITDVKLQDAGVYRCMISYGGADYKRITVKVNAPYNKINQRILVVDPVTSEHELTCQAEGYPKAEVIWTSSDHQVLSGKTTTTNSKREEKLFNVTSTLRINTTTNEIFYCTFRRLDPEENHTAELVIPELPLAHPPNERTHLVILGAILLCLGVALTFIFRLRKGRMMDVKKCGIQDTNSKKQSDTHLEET
T1 sequence (Q07011 24-255 limits assumed): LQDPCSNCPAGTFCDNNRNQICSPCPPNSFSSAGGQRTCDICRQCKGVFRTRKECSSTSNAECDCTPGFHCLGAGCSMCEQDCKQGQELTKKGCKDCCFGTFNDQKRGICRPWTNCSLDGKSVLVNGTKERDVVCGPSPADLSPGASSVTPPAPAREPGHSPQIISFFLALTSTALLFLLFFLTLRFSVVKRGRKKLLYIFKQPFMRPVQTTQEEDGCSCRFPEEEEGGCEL

Binder | EC50 (read off the curve) [1] | EC50 (read off the curve) [2] | EC50 (read off the curve) [3] | EC50 (read off the curve) [4] | EC50 (read off the curve) [5] | EC50 (read off the curve) [6] | EC50 (read off the curve) [7]
TRIDENT-A5 (bispecific antibody, human IgG1, kappa, L234A L235A, Trivalent; two CD137 MAB-6(1.2) sites, one hPD-L1 MAB-2(3.2) site) chain 1: EIVMTQSPATLSLSPGERATLSCRASQSVSSNYLSWYQQKPGQAPRLLIYGASTRATGIPARFSGSGSGTDFTLTISSLQPEDFAVYYCQQDYDLPWTFGQGTKVEIKGGGSGGGGQVQLQESGPGLVKPSETLSLTCTVSGGSISSYYWSWIRQPPGKGLEWIGRIYTSGSTNYNPSLKSRVTMSVDTSKNQFSLKLSSVTAADTAVYYCARDGWYDEDYNYYGMDVWGQGTTVTVSSGGCGGGEVAALEKEVAALEKEVAALEKEVAALEKGGGDKTHTCPPCPAPEAAGGPSVFLFPPKPKDTLYITREPEVTCVVVDVSHEDPEVKFNWYVDGVEVHNAKTKPREEQYNSTYRVVSVLTVLHQDWLNGKEYKCKVSNKALPAPIEKTISKAKGQPREPQVYTLPPSREEMTKNQVSLWCLVKGFYPSDIAVEWESNGQPENNYKTTPPVLDSDGSFFLYSKLTVDKSRWQQGNVFSCSVMHEALHNHYTQKSLSLSPGK chain 2: EIVMTQSPATLSLSPGERATLSCRASQSVSSNYLSWYQQKPGQAPRLLIYGASTRATGIPARFSGSGSGTDFTLTISSLQPEDFAVYYCQQDYDLPWTFGQGTKVEIKGGGSGGGGQVQLQESGPGLVKPSETLSLTCTVSGGSISSYYWSWIRQPPGKGLEWIGRIYTSGSTNYNPSLKSRVTMSVDTSKNQFSLKLSSVTAADTAVYYCARDGWYDEDYNYYGMDVWGQGTTVTVSSGGCGGGKVAALKEKVAALKEKVAALKEKVAALKE heavy: EVQLVESGGGLVQPGGSLRLSCAASGFTFSSYTMSWVRQAPGKGLEWVAYISIKGGTTYYPDTVKGRFTISRDNAKNSLYLQMNSLRAEDTAVYYCARQGLPYYGDYWGQGTLVTVSSASTKGPSVFPLAPSSKSTSGGTAALGCLVKDYFPEPVTVSWNSGALTSGVHTFPAVLQSSGLYSLSSVVTVPSSSLGTQTYICNVNHKPSNTKVDKRVEPKSCDKTHTCPPCPAPEAAGGPSVFLFPPKPKDTLYITREPEVTCVVVDVSHEDPEVKFNWYVDGVEVHNAKTKPREEQYNSTYRVVSVLTVLHQDWLNGKEYKCKVSNKALPAPIEKTISKAKGQPREPQVYTLPPSREEMTKNQVSLSCAVKGFYPSDIAVEWESNGQPENNYKTTPPVLDSDGSFFLVSKLTVDKSRWQQGNVFSCSVMHEALHNRYTQKSLSLSPGK light: DIQMTQSPSSLSASVGDRVTITCKASQDVNEAVAWYQQKPGKAPKLLIYWASTRHTGVPSRFSGSGSGTDFTLTISSLQPEDFATYYCQQHYNTPLTFGQGTKVEIKRTVAAPSVFIFPPSDEQLKSGTASVVCLLNNFYPREAKVQWKVDNALQSGNSQESVTEQDSKDSTYSLSSTLTLSKADYEKHKVYACEVTHQGLSSPVTKSFNRGEC | ~0.03 µg/mL | – | – | – | – | – | –
DART-A1 (bispecific antibody) first and third polypeptide chains: DIQMTQSPSSLSASVGDRVTITCKASQDVNTAVAWYQQKPGKAPKLLIYWASTRHTGVPSRFSGSGSGTDFTLTISSLQPEDFATYYCQQHYNTPLTFGQGTKVEIKGGGSGGGGQVQLQESGPGLVKPSETLSLTCTVSGGSISSYYWSWIRQPPGKGLEWIGRIYTSGSTNYNPSLKSRVTMSVDTSKNQFSLKLSSVTAADTAVYYCARDGWYDEDYNYYGMDVWGQGTTVTVSSGGCGGGEVAACEKEVAALEKEVAALEKEVAALEKLEPKSADKTHTCPPCPAPEAAGGPSVFLFPPKPKDTLYITREPEVTCVVVDVSHEDPEVKFNWYVDGVEVHNAKTKPREEQYNSTYRVVSVLTVLHQDWLNGKEYKCKVSNKALPAPIEKTISKAKGQPREPQVYTLPPSREEMTKNQVSLTCLVKGFYPSDIAVEWESNGQPENNYKTTPPVLDSDGSFFLYSKLTVDKSRWQQGNVFSCSVMHEALHNHYTQKSLSLSPGK second and fourth polypeptide chains: EIVMTQSPATLSLTPGERATLSCRASQSVSSNYLSWFQQIPGQAPRLLIYGASTRATGIPARFSGSGSGTDFTLTISSLQPEDFAVYYCQQDYDLPWTFGQGTKVEIKGGGSGGGGEVQLVESGGGLVQPGGSLRLSCAASGFTFSSYTMSWVRQAPGKGLEWVAYISIGGGTTYYPDTVKGRFTISRDNAKNSLYLQMNSLRAEDTAVYYCARQGLPYYFDYWGQGTLVTVSSGGCGGGKVAACKEKVAALKEKVAALKEKVAALKE | – | ~0.1 µg/mL | ~0.007 µg/mL | – | – | – | –
DART-A6 (bispecific antibody, Tetravalent; CD137 MAB-6(1.3) and hPD-L1 MAB-2(3.2)) chain 1: DIQMTQSPSSLSASVGDRVTITCKASQDVNEAVAWYQQKPGKAPKLLIYWASTRHTGVPSRFSGSGSGTDFTLTISSLQPEDFATYYCQQHYNTPLTFGQGTKVEIKGGGSGGGGQVQLQESGPGLVKPSETLSLTCTVSGGSISSYYWSWIRQPPGKGLEWIGRIYTSGSTNYNPSLKSRVTMSVDTSKNQFSLKLSSVTAADTAVYYCARDGWYDEDYNYYGMDVWGQGTTVTVSSGGCGGGEVAACEKEVAALEKEVAALEKEVAALEKLEPKSADKTHTCPPCPAPEAAGGPSVFLFPPKPKDTLYITREPEVTCVVVDVSHEDPEVKFNWYVDGVEVHNAKTKPREEQYNSTYRVVSVLTVLHQDWLNGKEYKCKVSNKALPAPIEKTISKAKGQPREPQVYTLPPSREEMTKNQVSLTCLVKGFYPSDIAVEWESNGQPENNYKTTPPVLDSDGSFFLYSKLTVDKSRWQQGNVFSCSVMHEALHNHYTQKSLSLSPGK chain 2: EIVMTQSPATLSLSPGERATLSCRASQSVSSNYLSWFQQKPGQAPRLLIYGASTRATGIPARFSGSGSGTDFTLTISSLQPEDFAVYYCQQDYDLPWTFGQGTKVEIKGGGSGGGGEVQLVESGGGLVQPGGSLRLSCAASGFTFSSYTMSWVRQAPGKGLEWVAYISIKGGTTYYPDTVKGRFTISRDNAKNSLYLQMNSLRAEDTAVYYCARQGLPYYGDYWGQGTLVTVSSGGCGGGKVAACKEKVAALKEKVAALKEKVAALKE | – | – | – | ~0.2 µg/mL | ~0.05 µg/mL | ~0.02 µg/mL | –
DART-A5 (bispecific antibody, Tetravalent; CD137 MAB-6(1.2) and hPD-L1 MAB-2(3.2)) chain 1: DIQMTQSPSSLSASVGDRVTITCKASQDVNEAVAWYQQKPGKAPKLLIYWASTRHTGVPSRFSGSGSGTDFTLTISSLQPEDFATYYCQQHYNTPLTFGQGTKVEIKGGGSGGGGQVQLQESGPGLVKPSETLSLTCTVSGGSISSYYWSWIRQPPGKGLEWIGRIYTSGSTNYNPSLKSRVTMSVDTSKNQFSLKLSSVTAADTAVYYCARDGWYDEDYNYYGMDVWGQGTTVTVSSGGCGGGEVAACEKEVAALEKEVAALEKEVAALEKLEPKSADKTHTCPPCPAPEAAGGPSVFLFPPKPKDTLYITREPEVTCVVVDVSHEDPEVKFNWYVDGVEVHNAKTKPREEQYNSTYRVVSVLTVLHQDWLNGKEYKCKVSNKALPAPIEKTISKAKGQPREPQVYTLPPSREEMTKNQVSLTCLVKGFYPSDIAVEWESNGQPENNYKTTPPVLDSDGSFFLYSKLTVDKSRWQQGNVFSCSVMHEALHNHYTQKSLSLSPGK chain 2: EIVMTQSPATLSLSPGERATLSCRASQSVSSNYLSWYQQKPGQAPRLLIYGASTRATGIPARFSGSGSGTDFTLTISSLQPEDFAVYYCQQDYDLPWTFGQGTKVEIKGGGSGGGGEVQLVESGGGLVQPGGSLRLSCAASGFTFSSYTMSWVRQAPGKGLEWVAYISIKGGTTYYPDTVKGRFTISRDNAKNSLYLQMNSLRAEDTAVYYCARQGLPYYGDYWGQGTLVTVSSGGCGGGKVAACKEKVAALKEKVAALKEKVAALKE | – | – | – | – | – | ~0.02 µg/mL | –
DART-A4 (bispecific antibody, Tetravalent; CD137 MAB-6(1.1) and hPD-L1 MAB-2(3.2)) chain 1: DIQMTQSPSSLSASVGDRVTITCKASQDVNEAVAWYQQKPGKAPKLLIYWASTRHTGVPSRFSGSGSGTDFTLTISSLQPEDFATYYCQQHYNTPLTFGQGTKVEIKGGGSGGGGQVQLQESGPGLVKPSETLSLTCTVSGGSISSYYWSWIRQPPGKGLEWIGRIYTSGSTNYNPSLKSRVTMSVDTSKNQFSLKLSSVTAADTAVYYCARDGWYDEDYNYYGMDVWGQGTTVTVSSGGCGGGEVAACEKEVAALEKEVAALEKEVAALEKLEPKSADKTHTCPPCPAPEAAGGPSVFLFPPKPKDTLYITREPEVTCVVVDVSHEDPEVKFNWYVDGVEVHNAKTKPREEQYNSTYRVVSVLTVLHQDWLNGKEYKCKVSNKALPAPIEKTISKAKGQPREPQVYTLPPSREEMTKNQVSLTCLVKGFYPSDIAVEWESNGQPENNYKTTPPVLDSDGSFFLYSKLTVDKSRWQQGNVFSCSVMHEALHNHYTQKSLSLSPGK chain 2: EIVMTQSPATLSLTPGERATLSCRASQSVSSNYLSWFQQIPGQAPRLLIYGASTRATGIPARFSGSGSGTDFTLTISSLQPEDFAVYYCQQDYDLPWTFGQGTKVEIKGGGSGGGGEVQLVESGGGLVQPGGSLRLSCAASGFTFSSYTMSWVRQAPGKGLEWVAYISIKGGTTYYPDTVKGRFTISRDNAKNSLYLQMNSLRAEDTAVYYCARQGLPYYGDYWGQGTLVTVSSGGCGGGKVAACKEKVAALKEKVAALKEKVAALKE | – | ~0.08 µg/mL | ~0.004 µg/mL | ~0.2 µg/mL | ~0.04 µg/mL | ~0.02 µg/mL | ~0.1 µg/mL
